Test results: patent US20100184709

Molecular target: T1, Ac-LRSR-amc
T1 chain: LRSR

B1: recombinant purified GST-Malt1 protein, oligomerized by binding to glutathione sepharose (protein)
chain: MSLLGDPLQALPPSAAPTGPLLAPPAGATLNRLREPLLRRLSELLDQAPEGRGWRRLAELAGSRGRLRLSCLDLEQCSLKVLEPEGSPSLCLLKLMGEKGCTVTELSDFLQAMEHTEVLQLLSPPGIKITVNPESKAVLAGQFVKLCCRATGHPFVQYQWFKMNKEIPNGNTSELIFNAVHVKDAGFYVCRVNNNFTFEFSQWSQLDVCDIPESFQRSVDGVSESKLQICVEPTSQKLMPGSTLVLQCVAVGSPIPHYQWFKNELPLTHETKKLYMVPYVDLEHQGTYWCHVYNDRDSQDSKKVEIIIGRTDEAVECTEDELNNLGHPDNKEQTTDQPLAKDKVALLIGNMNYREHPKLKAPLVDVYELTNLLRQLDFKVVSLLDLTEYEMRNAVDEFLLLLDKGVYGLLYYAGHGYENFGNSFMVPVDAPNPYRSENCLCVQNILKLMQEKETGLNVFLLDMCRKRNDYDDTIPILDALKVTANIVFGYATCQGAEAFEIQHSGLANGIFMKFLKDRLLEDKKITVLLDEVAEDMGKCHLTKGKQALEIRSSLSEKRALTDPIQGTEYSAESLVRNLQWAKAHELPESMCLKFDCGVQIQLGFAAEFSNVMIIYTSIVYKPPEIIMCDAYVTDFPLDLDIDPKDANKGTPEETGSYLVSKDLPKHCLYTRLSSLQKLKEHLVFTVCLSYQYSGLEDTVEDKQEVNVGKPLIAKLDMHRGLGRKTCFQTCLMSNGPYQSSAATSGGAGHYHSLQDPFHGVYHSHPGNPSNVTPADSCHCSRTPDAFISSFAHHASCHFSRSNVPVETTDEIPFSFSDRLRISEK
Q: For B1, which “LRSR-amc cleavage activity of recombinant enzyme (fluorescence)” value is on record?
A: recombinant purified GST-Malt1 protein, oligomerized by binding to glutathione sepharose, was tested for LRSR-amc clavage activity
